Literature values in patent US20090069376A1, “VLA-4 Antagonists” (priority 2005, published 2009).

Biological target: VLA-4 (Homo sapiens, UniProt P13612)
Conditions: early clinical trials

## natalizumab
  receptor occupancy: > 80%
